Results as given in patent US20240109962A1 (SPARX BIOSCIENCE, published 2024).

Columns and labels:
[1] = target: T1, recombinant human LILRB2 protein (human, UniProt Q8N423 22-460, limits assumed); assay: ELISA, coated recombinant human LILRB2; design: unit not given here
T1 construct: also called recombinant LILRB2 protein
Experimental: This affinity maturation library was screened against human LILRB2 to identify antibodies having high binding affinity to LILRB2. Briefly, an ELISA plate was coated with 0.1 ug/well recombinant human LILRB2 protein. Serial diluted maturated h#2E1 antibodies were incubated in the LILRB2 coated plate for 2 hrs. The plate was washed and a secondary HRP-labeled anti-human IgG was then added to each well. After being incubated at room temperature for 1 hour, the colorimetric ELISA signals were developed by adding the TMB substrate and reaction was stopped by 1M H3PO4. Table 7 below provides binding activities of exemplary matured antibodies to recombinant LILRB2 protein.

[2] = target: T2, human LILRB2 expressed on cells (293T-LILRB2, CHO-K1-LILRB2) (human, UniProt Q8N423 22-597); assay: flow cytometry, 293T-LILRB2 cells
T2 construct: whole, on cells; the cell line is named under assay; also called HEK293T-LILRB2
From the text: The fluorescent signals were detected by flow cytometry.

[3] = target: T2, human LILRB2 expressed on cells …; assay: flow cytometry, His-HLA-A2 tetramer (competitor) bound to 293T-LILRB2 cells, relative to no antibody; design: concentration or dose not given beside the values
Experimental: Serial diluted h#2E1 antibodies were then added to the mixture and incubated at room temperature for another 45 minutes. […]

[4] = target: T2, human LILRB2 expressed on cells …; assay: flow cytometry, blockade of His-tagged HLA-G tetramer binding to 293T-LILRB2 cells; fit table under the graph
Experimental: Serial diluted humanized LILRB2 antibodies were then added to the mixture and incubated at room temperature for another 45 minutes. The binding of HLA-G/LILRB2 was detected afterwards using a secondary PE-labeled anti-His tag antibody via flow cytometry.

[5] = target: LILRB2 antigen of the ELISA of Table 5 (format not specified) (UniProt Q8N423 22-460, limits assumed); assay: ELISA, antibody titration
LILRB2 antigen of the ELISA of Table 5 (format not specified), sequence (Q8N423 22-460 limits assumed): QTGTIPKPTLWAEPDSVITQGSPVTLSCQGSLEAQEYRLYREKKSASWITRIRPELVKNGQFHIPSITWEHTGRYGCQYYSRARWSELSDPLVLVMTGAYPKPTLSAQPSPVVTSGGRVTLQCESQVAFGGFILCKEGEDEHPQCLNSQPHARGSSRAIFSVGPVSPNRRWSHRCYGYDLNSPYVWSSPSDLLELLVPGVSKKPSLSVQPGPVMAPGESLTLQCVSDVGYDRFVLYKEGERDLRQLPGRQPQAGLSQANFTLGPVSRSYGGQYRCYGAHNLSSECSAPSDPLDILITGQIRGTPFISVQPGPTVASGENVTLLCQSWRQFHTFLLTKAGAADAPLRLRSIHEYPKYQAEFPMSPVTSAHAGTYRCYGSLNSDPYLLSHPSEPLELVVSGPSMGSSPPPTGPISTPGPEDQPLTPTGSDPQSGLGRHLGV

T2 sequence (Q8N423 22-597): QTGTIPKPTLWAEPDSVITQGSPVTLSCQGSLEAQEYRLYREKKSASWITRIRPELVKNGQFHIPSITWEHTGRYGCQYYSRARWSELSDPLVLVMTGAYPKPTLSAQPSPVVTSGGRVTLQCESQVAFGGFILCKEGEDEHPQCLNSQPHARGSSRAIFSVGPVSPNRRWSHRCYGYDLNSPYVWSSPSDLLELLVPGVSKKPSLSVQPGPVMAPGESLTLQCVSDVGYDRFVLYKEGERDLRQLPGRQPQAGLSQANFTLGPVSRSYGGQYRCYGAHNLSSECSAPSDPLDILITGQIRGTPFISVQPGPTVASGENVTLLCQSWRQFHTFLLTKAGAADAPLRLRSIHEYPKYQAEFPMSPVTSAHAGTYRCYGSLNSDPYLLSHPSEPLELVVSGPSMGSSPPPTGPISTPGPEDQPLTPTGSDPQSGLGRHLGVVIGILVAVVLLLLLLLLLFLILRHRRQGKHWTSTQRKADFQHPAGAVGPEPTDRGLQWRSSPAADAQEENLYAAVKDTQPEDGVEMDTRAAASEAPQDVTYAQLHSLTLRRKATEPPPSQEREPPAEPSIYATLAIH
T1 sequence (Q8N423 22-460 limits assumed): as the sequence (Q8N423 22-460 limits assumed) above

Binder	Bmax [1]	Bmax [2]	% no Ab [3] [%]	IC50 [4] [nM]	Kd [5] [nM]
Antibody 2E1_FD4 (antibody, V domains shown) VH: EVQLVESGGGLVQPGGSLRLSCAVSGYSITSGYYWNWIRQAPGKGLEWVAYISYDGNPNYNPSLKNRFTISRDTSKNTFYLQMNSLRAEDTAVYYCAREESTMITTAWFAYWGQGTLVTVSS VL: DIQMTQSPSSLSASVGDRVTITCRASENIYSNLAWYQQKPGKAPKLLIYGATNLASGVPSRFSGSGSGTDYTLTISSLQPEDFATYYCQHFWDTPYTFGQGTKVEIK	1.14	431000	49		
Antibody 2E1_GB7 (antibody, V domains shown) VH: EVQLVESGGGLVQPGGSLRLSCAVSGYSITSGYYWWWIRQAPGKGLEWVAYISYDGNNNYNPSLKNRFTISRDTSKNTFYLQMNSLRAEDTAVYYCAREESTMITTAWFAYWGQGTLVTVSS VL: DIQMTQSPSSLSASVGDRVTITCLASENIYSNLAWYQQKPGKAPKLLIYGATNLASGVPSRFSGSGSGTDYTLTISSLQPEDFATYYCQHFWDTPYTFGQGTKVEIK	1.48	636000			
Antibody 2E1_GB8 (antibody, V domains shown) VH: EVQLVESGGGLVQPGGSLRLSCAVSGYSITSGYYWWWIRQAPGKGLEWVAYISYDGNNNYNPSLKNRFTISRDTSKNTFYLQMNSLRAEDTAVYYCAREESTMITTAWFAYWGQGTLVTVSS VL: DIQMTQSPSSLSASVGDRVTITCSASENIYSNLAWYQQKPGKAPKLLIYGATNLASGVPSRFSGSGSGTDYTLTISSLQPEDFATYYCQHFWDTPYTFGQGTKVEIK	1.47	659000			
Antibody 2E1_GA4 (antibody, V domains shown) VH: EVQLVESGGGLVQPGGSLRLSCAVSGYSITSGYAWNWIRQAPGKGLEWVAYISYDGNNNYNPSLKNRFTISRDTSKNTFYLQMNSLRAEDTAVYYCAREESTMITTAWFAYWGQGTLVTVSS VL: DIQMTQSPSSLSASVGDRVTITCVASENIYSNLAWYQQKPGKAPKLLIYGATNLASGVPSRFSGSGSGTDYTLTISSLQPEDFATYYCQHFWDTPYTFGQGTKVEIK	1.61	725000			
Antibody 2E1_FG2 (antibody, V domains shown) VH: EVQLVESGGGLVQPGGSLRLSCAVSGYSITSGYYWNWIRQAPGKGLEWVAYISYDGNTNYNPSLKNRFTISRDTSKNTFYLQMNSLRAEDTAVYYCAREESTMITTAWFAYWGQGTLVTVSS VL: DIQMTQSPSSLSASVGDRVTITCRASENIYSNLAWYQQKPGKAPKLLIYGATNLASGVPSRFSGSGSGTDYTLTISSLQPEDFATYYCQHFWDTPYVFGQGTKVEIK	1.26	417000	53.6		
Antibody 2E1_GA1 (antibody, V domains shown) VH: EVQLVESGGGLVQPGGSLRLSCAVSGYSITSGYYWWWIRQAPGKGLEWVAYISYDGNNNYNPSLKNRFTISRDTSKNTFYLQMNSLRAEDTAVYYCAREESTMITTAWFAYWGQGTLVTVSS VL: DIQMTQSPSSLSASVGDRVTITCRASENIYSNLAWYQQKPGKAPKLLIYGATNLASGVPSRFSGSGSGTDYTLTISSLQPEDFATYYCQHFWDTPYTFGQGTKVEIK	1.62	739000			
Antibody 2E1_FE1 (antibody, V domains shown) VH: EVQLVESGGGLVQPGGSLRLSCAVSGYSITSGYYWNWIRQAPGKGLEWVAYISYDGNMNYNPSLKNRFTISRDTSKNTFYLQMNSLRAEDTAVYYCAREESTMITTAWFAYWGQGTLVTVSS VL: DIQMTQSPSSLSASVGDRVTITCRASENIYSNLAWYQQKPGKAPKLLIYGATNLASGVPSRFSGSGSGTDYTLTISSLQPEDFATYYCQHFWDTPYTFGQGTKVEIK		690000			
Antibody 2E1_GC8 (antibody, V domains shown) VH: EVQLVESGGGLVQPGGSLRLSCAVSGYSITSGYYWWWIRQAPGKGLEWVAYISYDGNNNYNPSLKNRFTISRDTSKNTFYLQMNSLRAEDTAVYYCAREESTMITTAWFAYWGQGTLVTVSS VL: DIQMTQSPSSLSASVGDRVTITCRASENIYSNQAWYQQKPGKAPKLLIYGATNRASGVPSRFSGSGSGTDYTLTISSLQPEDFATYYCQHFWDTPYTFGQGTKVEIK	1.44	697000			
Antibody 2E1_FG4 (antibody, V domains shown) VH: EVQLVESGGGLVQPGGSLRLSCAVSGYSITSGYYWNWIRQAPGKGLEWVAYISYDGNVNYNPSLKNRFTISRDTSKNTFYLQMNSLRAEDTAVYYCAREESTMITTAWFAYWGQGTLVTVSS VL: DIQMTQSPSSLSASVGDRVTITCRASENIYSNLAWYQQKPGKAPKLLIYGATNLASGVPSRFSGSGSGTDYTLTISSLQPEDFATYYCQHFWDTPYIFGQGTKVEIK	1.4	434000	55.4		
Antibody 2E1_FF3 (antibody, V domains shown) VH: EVQLVESGGGLVQPGGSLRLSCAVSGYSITSGYYWNWIRQAPGKGLEWVAYISYDGNNSYNPSLKNRFTISRDTSKNTFYLQMNSLRAEDTAVYYCAREESTMITTAWFAYWGQGTLVTVSS VL: DIQMTQSPSSLSASVGDRVTITCRASENIYSNLAWYQQKPGKAPKLLIYGATNLASGVPSRFSGSGSGTDYTLTISSLQPEDFATYYCQHFWDTPYTFGQGTKVEIK	1.17	434000			

Now from value to binder:

Bmax [1]	Bmax [2]	% no Ab [3] [%]	IC50 [4] [nM]	Kd [5] [nM]	Binder
1.14	641000				Antibody 2E1_GH3 (antibody, V domains shown) VH: EVQLVESGGGLVQPGGSLRLSCAVSGYSITSGYYWNWIRQAPGKGLEWVAYISYDGNNNYNPSLKNRFTISRDTSKNTFYLQMNSLRAEDTAVYYCAREESTMITTAWFAYWGQGTLVTVSS VL: DIQMTQSPSSLSASVGDRVTITCRASENIYSNLAWYQQKPGKAPKLLIYGATNLSSGVPSRFSGSGSGTDYTLTISSLQPEDFATYYCQHFWDTPYTFGQGTKVEIK
1.56	688000				Antibody 2E1_GG1 (antibody, V domains shown) VH: EVQLVESGGGLVQPGGSLRLSCAVSGYSITSGYAWNWIRQAPGKGLEWVAYISYDGNNNYNPSLKNRFTISRDTSKNTFYLQMNSLRAEDTAVYYCAREESTMITTAWFAYWGQGTLVTVSS VL: DIQMTQSPSSLSASVGDRVTITCRASENIYSNLAWYQQKPGKAPKLLIYGATNLASGVPSRFSGSGSGTDYTLTISSLQPEDFATYYCQHFWDTPYTFGQGTKVEIK
1.51	646000				Antibody 2E1_GH4 (antibody, V domains shown) VH: EVQLVESGGGLVQPGGSLRLSCAVSGYSITSGYYWWWIRQAPGKGLEWVAYISYDGNNNYNPSLKNRFTISRDTSKNTFYLQMNSLRAEDTAVYYCAREESTMITTAWFAYWGQGTLVTVSS VL: DIQMTQSPSSLSASVGDRVTITCRASENIYSNLAWYQQKPGKAPKLLIYGATNFASGVPSRFSGSGSGTDYTLTISSLQPEDFATYYCQHFWDTPYTFGQGTKVEIK
1.58	743000				Antibody 2E1_GH11 (antibody, V domains shown) VH: EVQLVESGGGLVQPGGSLRLSCAVSGYSITSGYYWWWIRQAPGKGLEWVAYISYDGNNNYNPSLKNRFTISRDTSKNTFYLQMNSLRAEDTAVYYCAREESTMITTAWFAYWGQGTLVTVSS VL: DIQMTQSPSSLSASVGDRVTITCNASENIYSNLAWYQQKPGKAPKLLIYGATNLASGVPSRFSGSGSGTDYTLTISSLQPEDFATYYCQHFWDTPYTFGQGTKVEIK
1.65	665000				Antibody 2E1_GE6 (antibody, V domains shown) VH: EVQLVESGGGLVQPGGSLRLSCAVSGYSITSGYYWWWIRQAPGKGLEWVAYISYDGNNNYNPSLKNRFTISRDTSKNTFYLQMNSLRAEDTAVYYCAREESTMITTAWFAYWGQGTLVTVSS VL: DIQMTQSPSSLSASVGDRVTITCRASENIYSNNAWYQQKPGKAPKLLIYGATYLASGVPSRFSGSGSGTDYTLTISSLQPEDFATYYCQHFWDTPYTFGQGTKVEIK
1.56	688000				Antibody 2E1_GF8 (antibody, V domains shown) VH: EVQLVESGGGLVQPGGSLRLSCAVSGYSITSGYYWWWIRQAPGKGLEWVAYISYDGNNNYNPSLKNRFTISRDTSKNTFYLQMNSLRAEDTAVYYCAREESTMITTAWFAYWGQGTLVTVSS VL: DIQMTQSPSSLSASVGDRVTITCRGSENIYSNLAWYQQKPGKAPKLLIYGATNLASGVPSRFSGSGSGTDYTLTISSLQPEDFATYYCQHFWDTPYTFGQGTKVEIK
			~0.833		chimeric 9B6 (antibody, V domains shown) VH: DVQLVESGGGLVQPGWSRILSCAASGFTFSNFGMHWVRQAPEKGLEWVAYISSGSGTIYYSDTVRGRFTISRDNPKNTLFLLMTSLRSEDTAMYYCTRSDYDGDWFFDVWGAGTTVTVSS VL: DIVMTQSHRFLSTSVGDRVTITCKASQDVTTAVAWCQQKPGQSPKLLIYSASFRYTGVPDRFTGSGSGTDFTFTINNVQAEDLALYYCQQHFTTPLTFGAGTKLELK
				11.7	Antibody 13C4 (antibody, V domains shown, Mouse hybridoma mAb purified from ascites) VH: QIHLVQSGPELKKPGETVKISCKASGYTFTNYGMNWVKQAPGKALKWMGWMNTYIGEPTYADDFKGRFAFSLETSASTAYLQINNLKNEDMATYFCARRGDYASYYFDYWGQGTTLTVSS VL: DIVLTQSPATLSVTPGDSVSLSCRASQNINNNLHWYHQKSHESPRLLIKYASQSISGIPSRVSGSGSGTDFTLSIVTVETEDFGMFFCQQSNSWPHTFGGGTKLEIR
